Results on two molecules are retold here after patent US20110097270A1.

By Kd is commonly meant the constant that tells how readily two partners part at equilibrium.

The target in assay [1] is hepatitis B surface antigen (HBsAg), purified from human plasma (hepatitis B virus). Nature of the assay: indirect competition ELISA on HBsAg-coated wells; highest attainable concentration of unlabeled Fab; competitor: HBV#8 IgG. In general terms: An ELISA detects its analyte on a solid surface through an enzyme-linked reagent.
Assay [2] shares this target. In words: indirect competition ELISA on HBsAg-coated wells; highest attainable concentration of unlabeled Fab; competitor: biotinylated HBV#8 Fab.
The target is the same in assay [3]. Nature of the assay: competition inhibition ELISA: free HBsAg against HBsAg-coated wells; I50 of antigen multiplied by 100.
Assay [4] has the same target. Nature of the assay: competition inhibition ELISA; Kd of the IgG against Kd of the Fab.

Chain of hepatitis B surface antigen (HBsAg), purified from human plasma (hepatitis B virus) (P03141 175-400): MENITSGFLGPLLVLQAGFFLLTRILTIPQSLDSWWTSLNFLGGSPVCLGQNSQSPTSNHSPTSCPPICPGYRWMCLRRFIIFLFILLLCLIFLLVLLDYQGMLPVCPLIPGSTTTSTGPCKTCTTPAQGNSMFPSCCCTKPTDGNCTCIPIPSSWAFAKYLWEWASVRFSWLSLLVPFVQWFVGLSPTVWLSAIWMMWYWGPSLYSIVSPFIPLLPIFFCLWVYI

B1: HBV#8 Fab (Fab, V domains shown)
VH: EVQLLESGPGLVKPSQTLSLTCAVSGAFMTSDYLYWSWLRQPPGKGPEWIGGIYTTGRSHYNPSLRGRATLSVDTSKNQFSLELNSVTAADTAVYYCARGQYHNWGPSLFDYYNYYYMDVWGKGTTVTVSS
VL: AAELTQSPSSLSASVGDRVTITCRASQDISNYLAWYQQKPGKAPKLLIYSASRLQSGVPSRFSGSGSGTDYTLTLSSLHPEDSATYYCHQYHSAPWTFGQGTKVEIKR
Consider B1, for which the results for the percent inhibition of binding in assay [1] and in assay [2] were 57% and 66%, respectively. In assay [3], this molecule had a Kd of 1900 nM.

B2: HBV#8 IgG (antibody, V domains shown)
VH: B1 VH
VL: B1 VL
In assay [4], B2 displayed a fold improvement of affinity (IgG against Fab) of 75 fold. This molecule also came in with a Kd in assay [3] of 25 nM.
